{
  "source": "patent US20080182978A1",
  "about": "“ANTI-NGF ANTIBODIES AND METHODS USING SAME” (RINAT NEUROSCIENCE CORP, priority 2002, published 2008)",
  "molecules": {"B1": {"name": "E3 (Fab): Fab fragment of humanized anti-NGF antibody E3 (antibody, V domains shown)", "VH": "QVQLQESGPGLVKPSETLSLTCTVSGFSLIGYDLNWIRQPPGKGLEWIGIIWGDGTTDYNSAVKSRVTISKDTSKNQFSLKLSSVTAADTAVYYCARGGYWYATSYYFDYWGQGTLVTVS", "VL": "DIQMTQSPSSLSASVGDRVTITCRASQSISNNLNWYQQKPGKAPKLLIYYTSRFHSGVPSRFSGSGSGTDFTFTISSLQPEDIATYYCQQEHTLPYTFGQGTKLEIKRT"}},
  "key": {"human NGF [1]": {"target": "T1, human NGF (Homo sapiens, UniProt P01138)", "T1 sequence (P01138 122-241)": "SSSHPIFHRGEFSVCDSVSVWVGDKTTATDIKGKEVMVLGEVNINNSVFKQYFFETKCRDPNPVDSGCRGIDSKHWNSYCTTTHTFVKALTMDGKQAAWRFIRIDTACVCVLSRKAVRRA", "test": "BIAcore affinity determination assay (kon, koff, KD of purified Fabs)", "type": "binding", "conditions": "Fab on immobilized human NGF", "protocol": "Affinities of anti-NGF Fabs and monoclonal antibodies were determined using the BIAcore300™ surface plasmon resonance (SPR) system (BIAcore, INC, Piscaway N.J.). CM5 chips were activated with N-ethyl-N′-(3-dimethylaminopropyl)-carbodimide hydrochloride (EDC) and N-hydroxysuccinimide (NHS) according to the supplier's instructions. Human NGF was diluted into 10 mM sodium acetate pH 4.0 and injected over the activated chip at a concentration of 0.005 mg/mL. Using variable flow time across the individual chip channels, two ranges of antigen density were achieved: 100-200 response units (RU) for detailed kinetic studies and 500-600 RU for screening assays. The chip was blocked with ethanolamine. […] HBS-EP buffer (0.01M HEPES, pH 7.4, 0.15 NaCl, 3 mM EDTA, 0.005% Surfactant […]) was used as running buffer for all the BIAcore assays.\nSerial dilutions (0.1-10× estimated KD) of purified Fab samples were injected for 1 min at 100 μL/min and dissociation times of up to 2 h were allowed. The concentrations of the Fab proteins were determined by ELISA and/or SDS-PAGE electrophoresis using as a standard a Fab of known concentration (as determined by amino acid analysis). Kinetic association rates (kon) and dissociation rates (koff) were obtained simultaneously by fitting the data to a 1:1 Langmuir binding model (Karlsson, R. Roos, H. Fagerstam, L. Petersson, B. (1994). Methods Enzymology 6. 99-110) using the BIAevaluation program. Equilibrium dissociation constant (KD) values were calculated as koff/kon.\nThe binding affinities to human NGF of Fabs E3 and 3C were measured using BIAcore analysis according to the manufacturer's instructions and as described above, except that 100 RU NGF was used on chip to prevent a rebinding effect. Briefly, several concentrations of antibodies (Fabs) were injected for 2 minutes onto a CM5 chip with 100 RU of immobilized human NGF on it, and permitted to dissociate for 1800 seconds. Mouse antibody 911 (Fab) was analyzed as a control. Data was analyzed using BIAevaluation software following the manufacturer's instructions. E3 bound human NGF with a KD of approximately 0.07 nM (and with a kon of about 6.0e5 M-1s-1, and a koff of about 4.2e-5s-1)."}, "[2]": {"target": "interaction of human NGF with trkA (Homo sapiens, UniProt P01138)", "sequence (P01138 122-241)": "as above", "test": "BIAcore: blocking of NGF binding to trkA on chip", "conditions": "2.5 nM human NGF preincubated one hour; Fab concentration equal to NGF concentration", "protocol": "(§1) Antibody E3 (interchangeably termed 3E) was selected for further analysis based on the high binding affinity. To test the ability of E3 to prevent the interaction of NGF with the NGF receptors trkA and p75, 2.5 nM of human NGF was premixed and incubated for one hour with 0 to 50 nM of antibody E3 (Fab). After the incubation, samples were injected at 10 ul/minute on a BIAcore CM5 chip containing 260 RU of p75 (channel 2) and 600 RU of trkA (channel 3), and percent binding was determined."}, "[3]": {"target": "interaction of human NGF with p75 (Homo sapiens, UniProt P01138)", "sequence (P01138 122-241)": "as above", "test": "BIAcore: blocking of NGF binding to p75 on chip", "conditions": "2.5 nM human NGF preincubated one hour; Fab concentration equal to NGF concentration", "protocol": "as §1"}, "human NGF [4]": {"target": "T1, human NGF", "test": "Mouse E17/18 trigeminal neuron survival assay, NGF", "type": "cell-based", "conditions": "saturating NGF (400 pM); 48 hours", "protocol": "(§2) The ability of antibody E3 to specifically block NGF activity was evaluated by measurement of the capacity of the antibody to inhibit survival of mouse E17/18 trigeminal neurons in vitro in the presence of saturating concentrations of NGF, the NGF-related neurotrophin NT3, or the NGF-unrelated neurotrophic factor, macrophage stimulating protein (MSP). The survival of mouse E17/18 trigeminal neurons is a sensitive assay to evaluate the NGF-blocking activity of anti-NGF antagonist antibodies because NGF is required to support survival of these neurons at higher concentrations than the level of NGF required to support survival of E13.5 TG neurons).\n(§3) The survival assay was conducted as follows: time mated pregnant Swiss Webster female mice were euthanised by CO2 inhalation. The uterine horns were removed and the embryos (at embryonic day 17 or 18) were extracted and decapitated. The trigeminal and nodose ganglia were dissected and cleaned. The ganglia were then trypsinised, mechanically dissociated and plated at a density of 100-300 cells per well in defined, serum-free medium in 4-well plates (Greiner) coated with poly-L-ornithine and laminin.\n(§4) E17/18 trigeminal neurons were grown either without added neurotrophic factors (negative control) or in the presence of saturating concentrations of human NGF (400 pM and 15 pM) (positive control); NT3 (400 pM); or MSP (600 pM). […]"}, "NT3": {"target": "T2, NT3 (Homo sapiens, UniProt P20783)", "T2 sequence (P20783 139-257)": "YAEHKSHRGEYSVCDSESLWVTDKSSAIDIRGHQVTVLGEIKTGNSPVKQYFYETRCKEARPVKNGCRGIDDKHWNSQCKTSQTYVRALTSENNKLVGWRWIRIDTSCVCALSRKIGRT", "test": "Mouse E17/18 trigeminal neuron survival assay, NT3", "type": "cell-based", "conditions": "saturating NT3; antibody up to 200 nM; 48 hours", "protocol": "as §2, §3, §4"}, "[5]": {"target": "macrophage stimulating protein (MSP) (Homo sapiens, UniProt P26927)", "sequence (P26927 19-711, species assumed)": "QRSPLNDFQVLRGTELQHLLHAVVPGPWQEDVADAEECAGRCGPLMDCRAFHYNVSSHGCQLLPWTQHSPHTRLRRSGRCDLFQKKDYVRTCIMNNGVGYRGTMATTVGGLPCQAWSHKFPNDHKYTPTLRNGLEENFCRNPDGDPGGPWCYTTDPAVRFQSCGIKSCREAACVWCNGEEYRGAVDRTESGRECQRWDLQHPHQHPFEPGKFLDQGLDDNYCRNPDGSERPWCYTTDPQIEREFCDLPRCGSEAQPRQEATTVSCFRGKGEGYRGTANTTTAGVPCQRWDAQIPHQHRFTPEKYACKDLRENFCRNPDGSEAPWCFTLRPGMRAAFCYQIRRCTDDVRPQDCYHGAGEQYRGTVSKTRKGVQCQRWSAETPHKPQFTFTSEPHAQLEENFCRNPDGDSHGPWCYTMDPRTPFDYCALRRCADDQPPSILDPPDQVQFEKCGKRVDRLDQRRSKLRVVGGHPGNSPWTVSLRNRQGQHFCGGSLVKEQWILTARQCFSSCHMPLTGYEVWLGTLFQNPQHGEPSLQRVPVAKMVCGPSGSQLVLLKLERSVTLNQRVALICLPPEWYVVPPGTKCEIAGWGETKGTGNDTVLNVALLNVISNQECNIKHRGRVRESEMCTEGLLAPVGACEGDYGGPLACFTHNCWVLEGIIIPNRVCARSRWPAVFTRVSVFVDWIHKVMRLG", "test": "Mouse E17/18 trigeminal neuron survival assay, MSP", "type": "cell-based", "conditions": "MSP 600 pM; antibody up to 200 nM; 48 hours", "protocol": "as §2, §3, §4"}, "BDNF": {"target": "T3, BDNF (Homo sapiens, UniProt P23560)", "T3 sequence (P23560 129-247)": "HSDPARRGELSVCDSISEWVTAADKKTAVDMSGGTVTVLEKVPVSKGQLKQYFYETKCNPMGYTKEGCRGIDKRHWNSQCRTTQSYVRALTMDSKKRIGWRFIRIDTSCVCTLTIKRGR", "test": "Mouse E17 nodose neuron survival assay, BDNF", "type": "cell-based", "conditions": "BDNF 400 pM; antibody up to 200 nM; 48 hours", "protocol": "(§5) The ability of antibody E3 to specifically block NGF activity was also evaluated by measurement of the capacity of the antibody to inhibit survival of mouse nodose E17 neurons in the presence of saturating concentrations of BDNF or NT4/5. Survival of nodose neurons is supported by BDNF or NT4/5; therefore, survival of these neurons is a sensitive assay to evaluate the BDNF or NT4/5-blocking ability of the anti-NGF antagonist antibody.\nas §3\n(§6) E17 nodose neurons were grown either in the absence of added neurotrophic factors (negative control), or with saturating concentrations of BDNF (400 pM) (positive control) or NT4/5 (400 pM) or NGF unrelated growth factor […]. High concentrations of neurotrophins were used, as the goal of this experiment was to test specificity of the antibodies. […]"}, "NT4/5": {"target": "T4, NT4/5 (Homo sapiens, UniProt P34130)", "T4 sequence (P34130 81-210)": "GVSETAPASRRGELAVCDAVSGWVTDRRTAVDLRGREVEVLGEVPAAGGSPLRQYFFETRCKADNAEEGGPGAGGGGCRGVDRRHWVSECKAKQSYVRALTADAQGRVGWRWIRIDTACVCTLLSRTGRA", "test": "Mouse E17 nodose neuron survival assay, NT4/5", "type": "cell-based", "conditions": "NT4/5 400 pM; antibody up to 200 nM; 48 hours", "protocol": "as §5, §3, §6"}, "LIF": {"target": "LIF (Homo sapiens, UniProt P15018)", "sequence (P15018 23-202, species assumed)": "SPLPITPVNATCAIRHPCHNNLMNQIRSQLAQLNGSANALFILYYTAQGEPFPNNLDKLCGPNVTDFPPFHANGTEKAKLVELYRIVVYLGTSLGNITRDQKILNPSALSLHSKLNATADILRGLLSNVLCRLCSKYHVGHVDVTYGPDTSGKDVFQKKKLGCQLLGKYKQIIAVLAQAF", "test": "Mouse E17 nodose neuron survival assay, LIF", "type": "cell-based", "conditions": "LIF 2.5 nM; antibody up to 200 nM; 48 hours", "protocol": "as §5, §3, §6"}},
  "data": [
    {"molecule": "B1", "values": [
      {"measurement": "koff", "setting": "human NGF [1]", "value": "<4e-05", "unit": "s⁻¹"},
      {"measurement": "kon", "setting": "human NGF [1]", "value": 600000, "unit": "M⁻¹ s⁻¹"},
      {"measurement": "NGF binding to trkA (percent maximum RU)", "setting": "[2]", "value": "no NGF binding was observed"},
      {"measurement": "NGF binding to p75 (percent maximum RU)", "setting": "[3]", "value": "no NGF binding was observed"},
      {"measurement": "survival of E17/18 trigeminal neurons promoted by NGF", "setting": "human NGF [4]", "value": "totally blocked"},
      {"measurement": "survival of E17/18 trigeminal neurons promoted by NT3", "setting": "NT3", "value": "did not inhibit"},
      {"measurement": "survival of E17/18 trigeminal neurons promoted by MSP", "setting": "[5]", "value": "did not inhibit"},
      {"measurement": "survival of E17 nodose neurons promoted by BDNF", "setting": "BDNF", "value": "did not inhibit"},
      {"measurement": "survival of E17 nodose neurons promoted by NT4/5", "setting": "NT4/5", "value": "did not inhibit"},
      {"measurement": "survival of E17 nodose neurons promoted by LIF", "setting": "LIF", "value": "did not inhibit"}
    ]}
  ]
}
